The target of experiment [1] is T1, IL13Rα2 on cells (recombinant K562-IL13Rα2 cell line, U251-MG cells, PC3 cells) (human, UniProt Q14627 27-380).
T1 construct: whole, on cells; not repeated for the recombinant cell line; also called Interleukin-13 receptor subunit alpha-2
T1 sequence (looked up): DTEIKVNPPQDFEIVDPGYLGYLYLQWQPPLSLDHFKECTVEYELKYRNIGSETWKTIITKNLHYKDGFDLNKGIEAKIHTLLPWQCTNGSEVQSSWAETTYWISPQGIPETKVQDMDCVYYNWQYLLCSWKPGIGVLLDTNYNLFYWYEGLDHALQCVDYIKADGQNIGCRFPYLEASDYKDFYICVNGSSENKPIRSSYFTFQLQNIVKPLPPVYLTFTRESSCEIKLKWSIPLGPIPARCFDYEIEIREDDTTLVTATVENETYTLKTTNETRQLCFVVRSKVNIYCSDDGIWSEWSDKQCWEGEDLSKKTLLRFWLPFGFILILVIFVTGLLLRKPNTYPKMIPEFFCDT
In words: flow cytometry, two-step immunostaining, PC3 cells.

For experiment [2], the target named is T1, IL13Rα2 on cells (recombinant …). Nature of the experiment: cell-based or functional assay.
Experiment [3] has the same target. Nature of the experiment: flow cytometry cellular binding, U251-MG cells, mean. On the procedure:
(§1) The data were fitted using a four-parameter model with a variable slope for sigmoidal curves. The EC50 value obtained from this model can be interpreted as a representative value of the TM affinity for the cells overexpressing the target receptor.
The mean values were calculated from the results obtained from two independent experiments with three technical replicates each (see Tab. 1).
A general note: A flow cytometer gives signals particle by particle.

Experiment [4] shares this target. In words: flow cytometry, two-step immunostaining, K562-IL13Rα2 cells. As for the experimental part:
(§2) Cellular binding of IL13-based targeting modules (TM) was tested on recombinant K562-IL13Rα2 cell line (FIG. 2A), recombinant K562-IL13Rα1 cell line (FIG. 2B) and U251-MG cells (FIG. 2C) (derived from a malignant glioblastoma tumor by explant technique). The affinity of TMs was analyzed by FACS in a two-step immunostaining. The TMs were titrated on an AML cell line with recombinant overexpression of IL13Rα2 or IL13Rα1 or U251-MG cells, respectively, and then detected by a mouse anti-His-tag antibody conjugated to phycoerythrin. A dose-response curve was obtained when the geometric mean fluorescence (MFI) was plotted against the TM concentration.
as §1

The target is the same in experiment [5]. Nature of the experiment: cell-based or functional assay. The source holds these as a separate data set.
Experiment [6] has as its target T2, soluble recombinant IL13Rα2 ectodomain (human, UniProt Q14627 27-343).
T2 construct: extracellular domain
T2 sequence (looked up): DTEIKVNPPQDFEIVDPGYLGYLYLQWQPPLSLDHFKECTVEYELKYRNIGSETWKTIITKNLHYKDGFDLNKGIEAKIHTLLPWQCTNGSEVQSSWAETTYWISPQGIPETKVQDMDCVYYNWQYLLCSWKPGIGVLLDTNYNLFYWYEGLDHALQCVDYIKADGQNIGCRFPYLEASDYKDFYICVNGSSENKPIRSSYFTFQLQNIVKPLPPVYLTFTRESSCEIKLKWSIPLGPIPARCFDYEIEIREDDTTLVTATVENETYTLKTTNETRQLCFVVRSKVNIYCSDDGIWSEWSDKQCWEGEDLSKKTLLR
In words: SPR, Biacore X100, two-state reaction model. As for the experimental part: (§3) Data obtained by surface plasmon resonance were fitted with a “two-state reaction” model using the Biacore X100 Evaluation Software (V2.0.1). The following parameters were calculated from this model: association rate (kₐ), dissociation rate (kd) and the dissociation constant at equilibrium (KD).
(SPR reads the build-up and loss of mass on a sensor chip optically.)

Experiment [7] deals with T2, soluble recombinant IL13Rα2 ectodomain. In words: SPR, Biacore X100, two-state reaction model, Kd1. On the procedure:
as §3

The target is the same in experiment [8]. Nature of the experiment: SPR, Biacore X100, two-state reaction model, Ka1. As for the experimental part: as §3
Experiment [9] addresses T3, IL13Rα1 on recombinant K562-IL13Rα1 cell line (UniProt P78552 22-427).
T3 construct: whole, on cells
T3 sequence (looked up): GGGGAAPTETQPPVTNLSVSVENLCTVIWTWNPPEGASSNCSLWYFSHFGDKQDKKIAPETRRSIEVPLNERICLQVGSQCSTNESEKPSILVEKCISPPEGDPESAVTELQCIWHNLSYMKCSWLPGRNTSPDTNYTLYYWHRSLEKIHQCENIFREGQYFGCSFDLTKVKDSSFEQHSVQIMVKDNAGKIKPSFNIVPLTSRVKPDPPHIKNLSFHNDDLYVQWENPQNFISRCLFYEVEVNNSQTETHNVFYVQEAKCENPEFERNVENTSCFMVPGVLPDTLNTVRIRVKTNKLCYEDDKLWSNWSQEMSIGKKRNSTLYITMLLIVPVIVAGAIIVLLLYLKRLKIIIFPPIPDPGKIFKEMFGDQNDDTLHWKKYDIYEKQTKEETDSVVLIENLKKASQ
In words: flow cytometry cellular binding assay on recombinant K562-IL13Rα1 cells, two-step immunostaining, MFI against TM concentration. As for the experimental part:
as §2, §1

For experiment [10], the target named is T2, soluble recombinant IL13Rα2 ectodomain. Nature of the experiment: SPR, Biacore X100, 1:1 binding model. On the procedure: Data obtained by surface plasmon resonance were fitted with a “1:1 binding” model using the Biacore X100 Evaluation Software (V2.0.1). The following parameters were calculated from this model: association rate (kₐ), dissociation rate (kd) and the dissociation constant at equilibrium (KD).

The target in experiment [11] is T1, IL13Rα2 on cells (recombinant …). In words: flow cytometry cellular binding assay on recombinant K562-IL13Rα2 cells, two-step immunostaining (anti-His-tag-PE), absolute MFI against TM concentration, four-parameter fit. As for the experimental part:
as §2
(§4) The data for the cellular binding of IL13-based TMs on the IL13Rα2-expressing AML cell line and U251-MG cells were fitted using a four-parameter model with a variable slope for sigmoidal curves.

The target is the same in experiment [12]. In words: flow cytometry cellular binding assay on U251-MG cells, two-step immunostaining (anti-His-tag-PE), absolute MFI against TM concentration, four-parameter fit. On the procedure:
as §2, §4

Experiment [13] has as its target T3, IL13Rα1 on recombinant K562-IL13Rα1 …. In words: flow cytometry cellular binding assay on recombinant K562-IL13Rα1 cells, two-step immunostaining (anti-His-tag-PE), absolute MFI against TM concentration. As for the experimental part:
as §2

Where a chain is given by its changes, count along the chain named. Numbers in names are those of the source.

In general, EC50 refers to the concentration needed to bring the measured effect to its halfway point. In general, Kd refers to the concentration at which binding is half-saturated. The koff is the first-order rate constant of dissociation. In general, kon refers to a measure of how fast the partners come together.

B1: TM-mu33A1-scFv (scFv)
scFv: EFQVQLQQPGAELVKPGASVKLSCKASGYTFTSHWIHWVKERPGRGLEWIGRIEPNSGGTLYNEKFKTKATLTVDKPSSTAYMQINSLTSEDFAVYYCARWREFDFFDYWGQGTTLTVSSGGGGSGGGGSGGGGSDIVLTQSPATLSVTPGDSVSLSCRASQSISNNLHWYQQKSHESPRLLIKYASQSISGIPSRFSGSGSGTDFTLSISSVETEDFGMYFCQQSNRWPYTFGGGTKLEIKAAAKPLPEVTDEYARGGPGGGGSHHHHHHHH
notes: also called TM based on the parental murine clone 33A1; mu33A1-based TM
Turning to B1, the EC50 was 1 nM in experiment [1], 2.5 nM in experiment [3] and 1.68 nM in experiment [4]. In [2], the “EC50 (M), mean, lysis of U251-MG cells by UniCAR T cells” value came out at 2.8e-11 M. Also, the “EC50 of lysis of K562-IL13Rα2 cells by switchable CAR T cells” value in experiment [5] amounted to 0.0068 nM. Further, the “EC50 of lysis of PC3 cells by switchable CAR T cells” value in experiment [5] stood at 0.048 nM. Moreover, in [6], the Kd turned out to be 1.39 nM. For the same molecule, in experiment [7], the koff stood at 0.0024 s⁻¹. In experiment [8], the kon came to 871000 M⁻¹ s⁻¹. The binding result in experiment [9] is reported as “no binding (tested: 1x10^-6 M)”.

B2: TM-IL13-E11Y-G30Y (ligand, not shown: small tags and cut ends)
chain (part 1 of 2): GPVPPSTALRYLIEELVNITQNQKAPLCNYSMVWSINLTAGMYCAALESLINVSGCSAIEKTQRMLSGFCPHKVSAGQFSSLHVRDTKIEVAQFVKDLLLHLKKLFREGRFN
chain (part 2 of 2): KPLPEVTDEYHHHHHHHH
For the molecule B2, in experiment [10], the Kd stood at 30 nM, the koff worked out at 0.00049 s⁻¹ and the kon worked out at 26000 M⁻¹ s⁻¹. For the same molecule, in [11], the EC50 amounted to 26 nM.

B3: TM-IL13-E11Y-M32A (ligand, not shown: small tags and cut ends)
chain (part 1 of 2): B2 chain (part 1 of 2) with Y30G, M32A
chain (part 2 of 2): KPLPEVTDEYHHHHHHHH
Turning to B3, in experiment [12], the EC50 turned out to be 1.08 nM. Besides, in experiment [10], the Kd amounted to 21 nM, the dissociation rate constant (koff) stood at 0.00073 s⁻¹ and the association rate constant (kon) is 35000 M⁻¹ s⁻¹. Further, the binding result in [13] was “no binding (tested: about 5x10^-6 M)”. For the same molecule, the EC50 in experiment [11] amounted to 14.1 nM.

Source of the values: US20250302875A1 (AVENCELL EUROPE, published 2025).
